Laboratory results as given in patent US5834290.

Molecular target: stratum corneum chymotryptic enzyme (SCCE), native, from human plantar stratum corneum (human)

## soybean trypsin inhibitor (SBTI) (from UniProt P01070)
  hydrolysis of S-2586 by the proteinase associated with plantar stratum corneum cells, Activity (%): 6 % activity
